B1: Sex-determining transformer protein 2 (Caenorhabditis elegans), P34709 (parent)
chain: MKLKYNKLLVSVVIVTFVTFGLLLAECFGKSIDYQEKSIFPSFVSQGFFETRTNNEEYIIEKIAQTQENGVDMRSTLHFTQHGYLLNNISNLKIKFRQKTYTLNDVCFKPHITIFQQSSSSDQNEYPHYIQRLLLEMQRLSPCLIVTPLNCFYDIYRIHGEISNWNKNTDFLNRRLRNSYIEAIGENDERPYVKSNYGPSLIKSWADHMFDLPSKSFTNSTKDALFQKIKLWLLSIEPRQKTCAASIHSCDTPLDSEHYFNICTDMQSVDNFAEKKTKFKLEDVDEEFAMNLDCVDDQEQFIEWMQELEIRKMYSHVTEKPDYPNVVNQTCDKIFHDLNSTGIEFFDGSRSFSSTKSQFDTMQTEIVLLTPEMLLSAMQHSDFVNGFESIWTIEKAEELIHEFRLALKEETEKFKENRMSKMIRVTSRVLDNTVTTKLQSFSEKQTIHFVVNVHSLIVILFTIFVWSGAPLRSAFMFFVRDALTCLLFCFVCSTDGVIVLDTELIKYIIVLTLANLYFTTRSSFCTERLSRCIQREKRFPINSNFASLITVDTMTDSRQIQYFLSTVTKYQAAQDSYSNELFERFPKNWGCTSILIFPIVFVYWYFIDSNFDKICVSVLPSFCLAAGEELFAKNMFWKEREAMQAKQRLENEEQAESITGSSLEKLFAGNKPVSNTDKANIVKKSSIIRNQKPCLQDLSPGTYDVSNFMKYPHQASRIFREKIIGLYLRILKLRTLGVILCIPAILLIVISIGLLFIPVKRETLHTDSKQDDIFIEFEIFNFSTNWKIVNQNLKQFSEDIESIGTLYTISNWQKSFERFEQETNKNASAEWNILFKWINDEPINSAVTLFSEKSSGNQTIANPFKFRLRYGFDAKNETTVIEIVQKIDELLSKCSKNLSPKAVGVLYEHYHRIAVVWNLFAFNQLTTAGIFIILLSIITFIFAITPTIKATFLFSLLVVGTQIEVAALVHLFSLDHHQIYTNLALFAGFLAAWDPFCALLRYRRRILYKSETRRTPELASKRRVLLPIVATADIAQFFVLLITAFSILAIICSIVPELNIFFVPTVILIVIQIVAVFNSIIVSIATKQMFESEVRHYLHRDLRGSTTAVRVYNLVQKQRLASSLDEPQVELDEFSIKRSSPPCRYYAPPPKYSCKKRSRSSDEDEDSDPNQPGPSNRRSPKTGNKRVRGNGDNTELYIPNRYELIVSGKSVGGNTSAAWNGPGSTLEQNMNALEECFELGVDEYDFDEHDGDEGCELVQDMLDRERNLMNKRSTAQRRESRNIEKMKKSQENLDKEKSEEKISESKKNQDDSIESPNLPGTPANLPVDEPLPPVGRLYIVEHVLPEEYRRDPLTEPPSMEDCIRAHSDPNLPPHPRADQYPASFTRPMVEYCEDIYWTHRTGQLPPGLQVPRRPYDYYHITERTPPPEDLNWVPPAESPPIPIPQQAFDLLEERRRNHREQQDEAREGDLSDPEV
partner: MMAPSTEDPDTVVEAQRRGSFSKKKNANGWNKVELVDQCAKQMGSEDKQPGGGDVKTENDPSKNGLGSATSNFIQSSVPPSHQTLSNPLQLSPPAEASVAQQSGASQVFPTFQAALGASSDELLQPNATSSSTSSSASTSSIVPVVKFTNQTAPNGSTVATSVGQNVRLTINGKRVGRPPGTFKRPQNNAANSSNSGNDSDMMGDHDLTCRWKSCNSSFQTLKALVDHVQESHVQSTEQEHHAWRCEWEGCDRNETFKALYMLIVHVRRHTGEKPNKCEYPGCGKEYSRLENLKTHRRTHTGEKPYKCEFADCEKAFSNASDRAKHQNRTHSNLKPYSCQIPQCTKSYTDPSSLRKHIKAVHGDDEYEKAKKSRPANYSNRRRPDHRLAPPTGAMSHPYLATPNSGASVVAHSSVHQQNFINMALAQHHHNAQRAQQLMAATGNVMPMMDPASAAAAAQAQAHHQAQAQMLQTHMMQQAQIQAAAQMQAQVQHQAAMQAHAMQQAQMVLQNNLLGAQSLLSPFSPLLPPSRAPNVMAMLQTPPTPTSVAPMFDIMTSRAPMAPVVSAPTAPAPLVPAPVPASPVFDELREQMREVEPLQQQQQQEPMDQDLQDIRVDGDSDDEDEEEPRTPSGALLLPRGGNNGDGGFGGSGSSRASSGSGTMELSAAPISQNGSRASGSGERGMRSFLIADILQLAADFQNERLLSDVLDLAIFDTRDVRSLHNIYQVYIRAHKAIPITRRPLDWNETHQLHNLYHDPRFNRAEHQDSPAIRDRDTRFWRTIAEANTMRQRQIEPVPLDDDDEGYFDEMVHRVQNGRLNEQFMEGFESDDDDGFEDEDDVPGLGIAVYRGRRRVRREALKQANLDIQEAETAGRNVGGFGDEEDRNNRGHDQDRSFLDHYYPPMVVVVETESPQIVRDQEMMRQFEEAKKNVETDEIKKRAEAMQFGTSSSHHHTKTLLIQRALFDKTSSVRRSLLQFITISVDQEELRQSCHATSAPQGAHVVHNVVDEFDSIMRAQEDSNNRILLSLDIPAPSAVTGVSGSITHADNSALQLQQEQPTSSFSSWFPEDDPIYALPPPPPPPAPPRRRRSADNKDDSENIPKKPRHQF
B2: Sex-determining transformer protein 1 (Caenorhabditis elegans), P34708 (parent)
chain: B1 partner
partner: B1 chain

Variants of: B1
Settings: with tra1_caeel tra-1, P34708

Row | effect of a mutation on the interaction | Variant
1 | decreasing interaction | C1392Y;E1393K;R1400Q

Variants of: B2
Settings: with tra2_caeel tra-2, P34709

Row | effect of a mutation on the interaction | Variant
2 | decreasing interaction | L723F
